This passage reports Kd results from the Immune Epitope Database (IEDB).

For assay [1], the target named is HLA-A*69:01. Description: IEDB peptide-MHC binding, purified MHC/direct/fluorescence; filed as Kd, often an IC50 or EC50 that approximates it; ≥ and ≤ were set here for values at or beyond the usual limits of such assays.
The target of assay [2] is HLA-A*02:01. The description is as above.
Assay [3] concerns the target HLA-B*07:02. The description is as above. The conditions noted are these: source organism: Mycobacterium tuberculosis F11.
The target of assay [4] is HLA-A*32:01. Description: IEDB peptide-MHC binding, purified MHC/competitive/radioactivity; filed as Kd, often an IC50 or EC50 that approximates it; ≥ and ≤ were set here for values at or beyond the usual limits of such assays.
Assay [5] concerns the target HLA-A*03:01. Description: IEDB peptide-MHC binding, purified MHC/direct/fluorescence; filed as Kd, often an IC50 or EC50 that approximates it; ≥ and ≤ were set here for values at or beyond the usual limits of such assays. The settings on record: source organism: Mycobacterium tuberculosis F11.
The target in assay [6] is HLA-A*01:01. Described as above.
Assay [7] has as its target HLA-A*26:01. Description: IEDB peptide-MHC binding, purified MHC/competitive/radioactivity; filed as Kd, often an IC50 or EC50 that approximates it; ≥ and ≤ were set here for values at or beyond the usual limits of such assays.
Assay [8] deals with HLA-B*15:01. Description: IEDB peptide-MHC binding, purified MHC/direct/fluorescence; filed as Kd, often an IC50 or EC50 that approximates it; ≥ and ≤ were set here for values at or beyond the usual limits of such assays.
The target in assay [9] is HLA-A*02:03. Description: IEDB peptide-MHC binding, purified MHC/competitive/radioactivity; filed as Kd, often an IC50 or EC50 that approximates it; ≥ and ≤ were set here for values at or beyond the usual limits of such assays.
Assay [10] has as its target HLA-A*02:06. Described as above.
Assay [11] deals with HLA-A*02:02. The assay is described as above.
In assay [12] the target is HLA-B*40:01. Description: IEDB peptide-MHC binding, purified MHC/direct/fluorescence; filed as Kd, often an IC50 or EC50 that approximates it; ≥ and ≤ were set here for values at or beyond the usual limits of such assays. The conditions noted are these: source organism: Mycobacterium tuberculosis.
Setting [13] is: source organism: Escherichia coli O157:H7.
Where [14] appears, read: source organism: Shigella dysenteriae.
Where [15] appears, read: source organism: Vaccinia virus WR.
Where [16] appears, read: source organism: Dengue virus 1 Brazil/97-11/1997.
The mark [17] stands for this setting: source organism: Dengue virus 2 Jamaica/1409/1983.
The mark [18] stands for this setting: source organism: Dengue virus 4 Philippines/H241/1956.
[19] abbreviates: source organism: Yersinia pestis.
The mark [20] stands for this setting: source organism: Vaccinia virus Copenhagen.
The mark [21] stands for this setting: source organism: Lymphocytic choriomeningitis virus (strain Armstrong).
Setting [22] is: source organism: Mammarenavirus brazilense.

Usually Kd stands for the equilibrium constant for the complex coming apart. As for ALEKGIKDV, the values for the Kd in [1] (setting [13]) and in [2] (setting [13]) were at least 20000 nM and 6000 nM, respectively.

In the case of ALELGRKTL, the Kd in assay [1] (setting [14]) was at least 20000 nM; in assay [2] (setting [14]) it was 8000 nM.

In turn, APEFVTAAA displayed a Kd in assay [3] of 933 nM.

On to ATALILVSF, for which the Kd in assay [4] (setting [15]) came out at 1.42 nM.

As to AVNPGGNIY, the Kd was at least 20000 nM in [5] and 3000 nM in [6] (source organism: Mycobacterium tuberculosis F11).

As for CASSSDWFY, the Kd in assay [6] (source organism: Tobacco leaf curl Zimbabwe virus) was determined as 2.1 nM.

DEDHAHWTEA: the Kd in assay [4] (setting [16]) turned out to be 390 nM.

Consider EDMLAVWNRV, for which, in [4] (setting [17]), the Kd turned out to be 219 nM.

On to ELIMKDGRKL, for which, in assay [7] (source organism: Dengue virus 3 Martinique/1243/1999), the Kd came to 12500 nM.

Take ELTGYGTVTM: the Kd in assay [7] (setting [17]) turned out to be 8470 nM.

On to EVEDYGFGIF, for which, in assay [7] (setting [16]), the Kd was determined as 1610 nM.

With EVEDYGFGMF, in assay [7] (setting [18]), the dissociation constant (Kd) worked out at 72.1 nM.

With EVPFCSHHF, the Kd in assay [7] (setting [18]) was 6630 nM.

As for FLQGAKWYL, the Kd in assay [1] (source organism: Mycobacterium tuberculosis) was determined as 465 nM.

As to FMHSAAPIT, the Kd in assay [1] (setting [19]) came to 7660 nM; in [2] (setting [19]), 216 nM; in assay [8] (setting [19]), 1920 nM.

Consider GLENGLNYI, for which the Kd in assay [2] (source organism: Homo sapiens) is 825 nM.

Consider IIDLLLPST, for which the Kd worked out at 10300 nM in [9] (setting [15]), 1120 nM in assay [10] (setting [15]) and 15100 nM in assay [11] (setting [15]).

Regarding IIGEPIIVA, the figures for the Kd in assay [9] (setting [15]), in [10] (setting [15]) and in assay [11] (setting [15]) were 4780 nM, 1350 nM and 2320 nM, respectively.

As for IILFQNNDI, the Kd in [9] (setting [15]) is at least 52300 nM; in [10] (setting [15]) it was 12000 nM; in [11] (setting [15]), 11300 nM.

On to ILANERYRSA, for which the values for the Kd in assay [9] (setting [15]), in assay [10] (setting [15]) and in assay [11] (setting [15]) were 18.3 nM, 7800 nM and 104 nM, respectively.

Take ILHNIYRLFT: the values for the Kd in assay [9] (setting [15]), in [10] (setting [15]) and in assay [11] (setting [15]) were 10.7 nM, 1210 nM and 125 nM, respectively.

Consider ILLKIVTQF, for which, in [4] (source organism: Dengue virus 4 Dominica/814669/1981), the dissociation constant (Kd) is 412 nM.

The sequence ITDVQDMDP registered a Kd in assay [6] (source organism: Homo sapiens) of 12300 nM.

For IVAAVIIMA, the Kd stood at 2660 nM in assay [9] (setting [15]), 3570 nM in [10] (setting [15]) and 10400 nM in assay [11] (setting [15]).

IVNTTYDFL: the dissociation constant (Kd) stood at 4680 nM in assay [9] (setting [15]), 2990 nM in assay [10] (setting [15]) and 1880 nM in assay [11] (setting [15]).

Consider KLYIALCKV, for which the results for the Kd in assay [9] (setting [20]), in assay [10] (setting [20]) and in assay [11] (setting [20]) were 1.41 nM, 97 nM and 15.6 nM, respectively.

In the case of KMLNLNYIV, the Kd in assay [4] (setting [15]) was 640 nM.

In turn, KQRGGYAQF returned a Kd in [8] (source organism: Mycobacterium tuberculosis variant bovis BCG str. Pasteur 1173P2) of 323 nM.

KTEHCDDFM: the Kd in assay [9] (setting [15]) is 18100 nM; in assay [10] (setting [15]), 2520 nM; in [11] (setting [15]) it was 6500 nM.

Turning to KTHVSSWEEV, the Kd in assay [4] (setting [16]) was determined as 6690 nM.

In the case of LAEYIRHRNT, the Kd in assay [9] (setting [15]) was 14000 nM; in [10] (setting [15]), at least 69800 nM; in assay [11] (setting [15]), at least 36100 nM.

For the sequence LENIIVPGL, the Kd in assay [12] is 71 nM.

Regarding LIAGIILLI, the Kd is 38.5 nM in assay [9] (setting [20]), 8220 nM in assay [10] (setting [20]), 0.173 nM in [11] (setting [20]) and at least 77800 nM in [4] (setting [20]).

Regarding LLNMRDLIVT, the Kd in assay [9] (setting [15]) worked out at 557 nM; in [10] (setting [15]) it was 707 nM; in assay [11] (setting [15]), 1420 nM.

Consider LNMFVSDQV, for which the figures for the Kd in assay [9] (setting [21]), in assay [10] (setting [21]) and in assay [11] (setting [21]) were 879 nM, 4810 nM and 17.6 nM, respectively.

For LSNCVHPAV, the Kd in assay [9] (setting [22]) was 1100 nM; in assay [10] (setting [22]), 461 nM; in assay [11] (setting [22]), 427 nM.

For the sequence LTDVEKRIL, the Kd in [9] (setting [15]) was at least 28500 nM; in [10] (setting [15]) it was at least 77100 nM; in assay [11] (setting [15]), at least 27400 nM.

In the case of LVQYIKFIF, the Kd in assay [4] (setting [15]) stood at 19.8 nM.

For MLYGIAQKI, the Kd in assay [4] (setting [20]) is 12.4 nM.

As to MVDVSMMSM, the figures for the Kd in assay [9] (setting [15]), in assay [10] (setting [15]) and in assay [11] (setting [15]) were 1160 nM, 101 nM and 559 nM, respectively.

Take NMINKLYGYA: the Kd in assay [9] (setting [15]) was determined as 0.438 nM; in assay [10] (setting [15]), 137 nM; in assay [11] (setting [15]), 1.57 nM.
